What was measured:
[1] = molecular target: human recombinant MMP-1 (human) (UniProt P03956); assay: sandwich ELISA; capture MAB901, detection 1-8A12-HRP; MMP-1 0.156 ng/ml
[2] = molecular target: endogenous MMP-1 in clinical saliva samples (human) (UniProt P03956); assay: sandwich ELISA; capture MAB901, detection 1-8A12-HRP; saliva sample 2 (MMP-1 5041.1 pg/ml)
[3] = molecular target: human recombinant MMP-1 (human) (UniProt P03956); assay: sandwich ELISA; capture MAB901, detection 1-8A12-HRP; MMP-1 1.25 ng/ml
[4] = molecular target: endogenous MMP-1 in clinical saliva samples (human) (UniProt P03956); assay: sandwich ELISA; capture MAB901, detection 1-8A12-HRP; saliva sample 1 (MMP-1 14821.9 pg/ml)
[5] = molecular target: endogenous MMP-1 in clinical saliva samples (human) (UniProt P03956); assay: sandwich ELISA; capture MAB901, detection 1-8A12-HRP; saliva sample 4 (MMP-1 6.4 pg/ml)
[6] = molecular target: endogenous MMP-1 in clinical saliva samples (human) (UniProt P03956); assay: sandwich ELISA; capture MAB901, detection 1-8A12-HRP; saliva sample 7 (MMP-1 120.6 pg/ml)
[7] = molecular target: endogenous MMP-1 in clinical saliva samples (human) (UniProt P03956); assay: sandwich ELISA; capture MAB901, detection 1-8A12-HRP; saliva sample 8 (MMP-1 0 pg/ml)
[8] = molecular target: endogenous MMP-1 in clinical saliva samples (human) (UniProt P03956); assay: sandwich ELISA; capture MAB901, detection 1-8A12-HRP; saliva sample 6 (MMP-1 27.1 pg/ml)
[9] = molecular target: endogenous MMP-1 in clinical saliva samples (human) (UniProt P03956); assay: sandwich ELISA; capture MAB901, detection 1-8A12-HRP; saliva sample 5 (MMP-1 285.6 pg/ml)
[10] = molecular target: human recombinant MMP-1 (human) (UniProt P03956); assay: sandwich ELISA; capture MAB901, detection 1-8A12-HRP; MMP-1 10 ng/ml
[11] = molecular target: human recombinant MMP-1 (human) (UniProt P03956); assay: sandwich ELISA; capture MAB901, detection 1-8A12-HRP; MMP-1 0.313 ng/ml
[12] = molecular target: human recombinant MMP-1 (human) (UniProt P03956); assay: sandwich ELISA; capture MAB901, detection 1-8A12-HRP; MMP-1 5 ng/ml
[13] = molecular target: human recombinant MMP-1 (human) (UniProt P03956); assay: sandwich ELISA; capture MAB901, detection 1-8A12-HRP; MMP-1 0.625 ng/ml
[14] = molecular target: human recombinant MMP-1 (human) (UniProt P03956); assay: sandwich ELISA; capture MAB901, detection 1-8A12-HRP; MMP-1 2.5 ng/ml
[15] = molecular target: endogenous MMP-1 in clinical saliva samples (human) (UniProt P03956); assay: sandwich ELISA; capture MAB901, detection 1-8A12-HRP; saliva sample 3 (MMP-1 1503.2 pg/ml)

MAB901 (antibody)
OD value [1]: 0.027 OD
OD value [2]: 0.883 OD
OD value [3]: 0.258 OD
OD value [4]: 2.69 OD
OD value [5]: -0.019 OD
OD value [6]: 0.006 OD
OD value [7]: -0.01 OD
OD value [8]: 0.003 OD
OD value [9]: 0.045 OD
OD value [10]: 2.34 OD
OD value [11]: 0.056 OD
OD value [12]: 1.19 OD
OD value [13]: 0.119 OD
OD value [14]: 0.544 OD
OD value [15]: 0.11 OD
